As usually defined, the stoichiometry N is the number of molecules, sites or subunits per partner or assembly.

Assay [1] deals with NavAb N49K/L176G mutant (Arcobacter butzleri) (UniProt A8EVM5). The assay is described as follows: crystal structure; protein in DMPC:CHAPSO bicelles, sitting-drop vapour diffusion at 20 °C; cryoprotectant with 2.5 M sodium chloride, with or without 100 mM calcium nitrate; homotetramer around the four-fold axis.
The target in assay [2] is NavAb N49K/L176Q mutant (Arcobacter butzleri) (UniProt A8EVM5). Described as above.

Turning to “NavAb N49K/L176G mutant (from UniProt A8EVM5 1-267) (natural protein)”, in assay [1], the stoichiometry N was found to be 4.
As for “NavAb N49K/L176Q mutant (from UniProt A8EVM5 1-267) (natural protein)”, the stoichiometry N in assay [2] worked out at 4.

Values taken from PMC10349818.
